Data as given in patent publication US20190100588A1 (published 2019).

T1: recombinant CD138 extracellular domain (soluble CD138) (UniProt P18827 23-250)
T1 chain: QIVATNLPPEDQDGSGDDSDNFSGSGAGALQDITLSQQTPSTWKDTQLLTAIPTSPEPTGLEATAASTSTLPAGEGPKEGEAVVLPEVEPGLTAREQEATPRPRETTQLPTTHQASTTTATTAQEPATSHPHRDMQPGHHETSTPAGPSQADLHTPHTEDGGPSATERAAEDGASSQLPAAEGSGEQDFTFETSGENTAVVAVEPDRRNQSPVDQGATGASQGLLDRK

T2: Pep6
T2 peptide: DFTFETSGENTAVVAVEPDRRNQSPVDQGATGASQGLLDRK

T3: Peptide 2a
T3 peptide: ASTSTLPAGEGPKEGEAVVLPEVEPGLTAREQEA


Tests used:
Assay in all cases: ELISA
[1] = biological target: T1, recombinant CD138 extracellular domain …
Pep6 = biological target: T2, Pep6
Peptide 2a = biological target: T3, Peptide 2a

| Binder | EC50 [1] [ng/mL] | EC50 (Pep6) [ng/mL] | EC50 (Peptide 2a) [ng/mL] |
| --- | --- | --- | --- |
| antibody 1610 (antibody, V domains shown) VH: QVQLHQPGTSLVKPGASVKLSCKASGYNFSSYYMHWVKQRPGQGLEWIGTIHPSDSTTNCNQKFKGKATLTVDKSSRTAYMQLNSLTFEDSAVYYCANFVYWGQGTSVTVSS VL: DIVITQDELSNPVTSGDSVSISCRSSKSLLYKDGKTYLNWFLQRPGQSPQLLIYVVSTRASGVSDRFSGSGSGTDFTLEISRVKAEDVGVYYCQQLVEYPYTFGGGTKLEIK | 2.7 | 12.3 | 3.9 |
| antibody 2810 (antibody, V domains shown) VH: QVQLHQPGTSLVKPGASVKLSCKASGYSFSSYYMHWVKQRPGQGLEWIGTIHPSDSTTNYNQKFKGKATLTVDKSSRTAYMQLNSLTFEDSAVYYCANFVYWGQGTSVTVSS VL: DIVITQDELSNPVTSGDSVSISCRSSKSLLYKDGKTYLNWFLQRPGQSPQLLIYVVSTRASGVSDRFSGSGSGTDFTLEISRVKAEDVGVYYCQQLVEYPYTFGGGTKLEIK | 5.3 | 3.2 | 2.8 |
| antibody 2610 (antibody, V domains shown) VH: QVQLHQPGTSLVKPGASVKLSCKASGYSFSSYYMHWVKQRPGQGLEWIGTIHPSDSTTNCNQKFKGKATLTVDKSSRTAYMQLNSLTFEDSAVYYCANFVYWGQGTSVTVSS VL: DIVITQDELSNPVTSGDSVSISCRSSKSLLYKDGKTYLNWFLQRPGQSPQLLIYVVSTRASGVSDRFSGSGSGTDFTLEISRVKAEDVGVYYCQQLVEYPYTFGGGTKLEIK | 7 | 4.9 | 3.8 |
| antibody 2510 (antibody, V domains shown) VH: QVQLHQPGTSLVKPGASVKLSCKASGYNFSSYYMHWVKQRPGQGLEWIGTIHPSDSTTNYNQKFKGKATLTVDKSSRTAYMQLNSLTFEDSAVYYCANFVYWGQGTSVTVSS VL: DIVITQDELSNPVTSGDSVSISCRSSKSLLYKDGKTYLNWFLQRPGQSPQLLIYVVSTRASGVSDRFSGSGSGTDFTLEISRVKAEDVGVYYCQQLVEYPYTFGGGTKLEIK | 4.9 | 8.9 | 4.6 |
